Data on 19 sequences can be found in the DeepSol protein solubility set.

A short description of this series: soluble on expression in E. coli; label from the status in PepcDB or PDB records.
Take “MSLVMKASVDDDDSGWELSMPEKMEKSNTNWVDITQDFEEACRELKLGELLHDKLFGLFEAMSAIEMMDPKMDAGMIGNQVNRKVLNFEQAIKDGTIKIKDLTLPELIGIMDTCFCCLITWLEGHSLAQTVFTCLYIHNPDFIEDPAMKAFALGILKICDIAREKVNKAAVFEEEDFQSMTYGFKMANSVTDLRVTGMLKDVEDDMQRRVKSTRSRQGEERDPEVELEHQQCLAVFSRVKFTRVLLTVLIAFTKKETSAVAEAQKLMVQAADLLSAIHNSLHHGIQAQNDTTKGDHPIMMGFEPLVNQRLLPPTFPRYAKIIKREEMVNYFARLIDRIKTVCEVVNLTNLHCILDFFCEFSEQSPCVLSRSLLQTTFLVDNKKVFGTHLMQDMVKDALRSFVSPPVLSPKCYLYNNHQAKDCIDSFVTHCVRPFCSLIQIHGHNRARQRDKLGHILEEFATLQDEAEKVDAALHTMLLKQEPQRQHLACLGTWVLYHNLRIMIQYLLSGFELELYSMHEYYYIYWYLSEFLYAWLMSTLSRADGSQMAEERIMEEQQKGRSSKKTKKKKKVRPLSREITMSQAYQNMCAGMFKTMVAFDMDGKVREGHHHHHH”: the “soluble on expression in E. coli” value is given as “not soluble”.

With “MSLVRIKDIALKAKVSSATVSRILNEDESLSVAGETRQRVINIAEELGYQTVAKRRKSRGQKQRAQPLIGVLSCLSPDQERQDPYFSSIRKGIEKECFEQEIFITNSIHLGSFQEHIFRELDGVIVIGRVHDEAVKHISGRLEHAVFINHSPDPQAYDSIGIDFESASRQAIDHLFDLGYKRLGYIGGQEKEHTLKDGQSIRRTIEDKRLTAFLESAAPQPEHVLIGEYSMREGYRLMKKAIDQGHLPEAFFIASDSMAIGALKALQEAGLQVPRDTAIVSFNGIEEAEFASTPLTTVKVYTEEMGRTGVKLLLDRLNGRTLPQHVTLPTTLIVRQSCGCTAKEGHHHHHH”, the “soluble on expression in E. coli” value is “soluble”.

“MSLWEFYMPTDVFFGEKILEKRGNIIDLLGKRALVVTGKSSSKKNGSLDDLKKLLDETEISYEIFDEVEENPSFDNVMKAVERYRNDSFDFVVGLGGGSPMDFAKAVAVLLKEKDLSVEDLYDREKVKHWLPVVEIPTTAGTGSEVTPYSILTDPEGNKRGCTLMFPVYAFLDPRYTYSMSDELTLSTGVDALSHAVEGYLSRKSTPPSDALAIEAMKIIHRNLPKAIEGNREARKKMFVASCLAGMVIAQTGTTLAHALGYPLTTEKGIKHGKATGMVLPFVMEVMKEEIPEKVDTVNHIFGGSLLKFLKELGLYEKVAVSSEELEKWVEKGSRAKHLKNTPGTFTPEKIRNIYREALGVEGGSHHHHHH”: the “soluble on expression in E. coli” value is given as “soluble”.

For the sequence “MSLYHDGPIEVLPGVWLGAEESVGRWDIWAGNTAGNTVRVVNVAQEVEDPFDAAGPGRVSGWPRPSALPAETAKRRMKLRTYPAVVGDGTRPHVEYCHARWSHGELGLADLPADACLGDVLYPRAPENNEGLWRFWETIRWMEEGRQGGTPILIHSQCGVSRSATLAIAYTMALAAAGAMPQYLGHIRVMQDAYDFVKGKSCWIGPNHSLVFQLVDFARNLTTLLSEGHHHHHH”, the “soluble on expression in E. coli” value is on record as “soluble”.

As for “MSLYRLLIVEDEHLIRKWLRYAIDYQSLNILVVGEAKDGKEGAQLIQEEQPDIVLSDINMPIMTAFDMFEATKGQSYAKIILSGYADFPNAQSAIHYGVLEFLTKPLEKQALIDCLKTIMARIEEHKEKHLQEHTELYLPLPQANDQVPEVIKDMLAWIHSHFHGKIVISQLAHDLGYSESYLYTVTKKHLHITLSDYINQYRINQAIQLMFREPDLMVYQIAEAVGIYDYRYFDRVFKKYLGQTVKAFKEEHIFKQMDEGHHHHHH”, the “soluble on expression in E. coli” value was “soluble”.

Take “MSLYSTDSGNLFHAGRILVVLVGLPATSKTLLSVAITRYTRWLGVRTKSFHFSEYKESAKNIPSDYFCVVPTSKEGVAFVEKLRMQMLNDILAFFNDLSGQLAIYDALNIRKIDRKNLETTFSEIGVKVLFIESIVSDQEIMNRNIALALESNDYKGLSTDEAIDEYMRRLSVNEPYYEMMTHDEELSYIKYINLGKQIIVKDNIHGYLVNKIVFFLMNLRQKKGCVYFARCGTSDKDNYIHDEELNEEGIHYSQVLKDFVLQRIKQKRQAKKNSDSLVEVIDGSHDEDLKTSLIVWTGPRKRTHDTALFFSKEGIKVQQRSELRQLNPGSIADLTDQQIMDKFPSEYKESLKDPYHFRFPRAESYHDLAVRMEPLLLEMEHTSKDILIIAHESTLRVLYGYLMACTCVELPNLNFTRDKLVEISFSPFCNTVELLNIPLTEGHHHHHH”: the “soluble on expression in E. coli” value is on record as “soluble”.

Consider “MSMDNHIVIMAGGIGSRFWPMSTPECPKQFIDVMGCGRTLIQLTADRFDGVCPRENVWVVTSEKYIDIVREQLPEIPESNILAEPCARNTAPCIAYACWKIKKKHPNANVVVTPSDALVINTGEFRRVVEKALRFTDNSSAIVTLGIKPTRPETGYGYIAAGDQIMTDKEIFTVDAFKEKPDRETADRYLAEGNYFWNAGIFVWNVRTITSVMRVYAPGIAQIFDRIFPDFYTEKENETIKKLFPTCEAISIDYAVMEKAQEIYVLPASFGWSDLGTWGALRGLLPQDKSGNATVGADVRLYESKNCIVHTSEEKRVVIQGLDGYIIAEKDNTLLICKLDEEQRIKEFSK”, for which the “soluble on expression in E. coli” value is listed as “not soluble”.

As for “MSMNRQEISDLCVKSLEGRMVGTEAQNIENGNAFYRYFFTNFPDLRVYFKGAEKYTADDVKKSERFDKQGQRILLACHLLANVYTNEEVFKGYVRETINRHRIYKMDPALWMAFFTVFTGYLESVGCLNDQQKAAWMALGKEFNAESQTHLKNSNLPHV”, the “soluble on expression in E. coli” value is listed as “not soluble”.

“MSMQEMVTISIVTYNSRYIFNVLDQLKAELGTDSIYDIHIYDNHSETAYLEKLTTYEPFITIHRAEENQGFGHGHNQVLFNASTKYAIIFNPDVLVTKDVLDRLLNRIKIDKNIAVVSPKVLNEDGTTQYLVRQKLDVFDYMLRFIPFQFVKKIFDKRLSIYECRDLSDTETTDIKMGSGCFMLIDREKFVEIGGFDERFFMYFEDNDLCLRFGKAGYRILYTPFETVVHMYEKGAHKSRKLFKIFMQSMGKFFNKWGWRFFLEHHHHHH”: the “soluble on expression in E. coli” value is given as “soluble”.

With “MSNEISDRKVSDTLKDKKPMSLLLLGTDTGEFGRSYKGRTDTIMMMVINPKTNKTTVVSLPRDMKVNLPDYPDYSPAKINAAYTYGGVDETVKTIKKYFNVPTDAYVMVNMGGLEKAIDQVGGVTVKSPLTFDYEGYHFTKGVTYHMNGKKALAFSRMRYDDPRGDYGRQERQRLVIMALLKSSISYKTVVNQTFLNSISKQTMTNLTFDNMVALAQNYRHATDNVTTDHAQGQGDWENGVAYESVSQAECQRISNKLRAALGLKPETLKTGELEHHHHHH”, the “soluble on expression in E. coli” value is recorded as “soluble”.

As to “MSNEPESTQHKSALQGLKGYLSSQILGQEKLVDRLLIALLADGHLLVEGAPGLAKTKAIKDLAEGLEAEFHRIQFTPDLLPADITGTEIYRPETGTFVFQQGPIFHHLVLADEINRAPAKVQSALLEAMAERQVSVGRSTYDLPQLFLVMATQNPIEQEGTYPLPEAQLDRFLMHVKIGYPEASVERRILQQARGEALNGEARPERRVTQETIFAARQEILGLYMADAVEEYLVQLIMATRTPAKHDAELAEWISYGASPRGSIALDRCARAHAWLGGRDFVSPEDIQAVLFDVLRHRLILTFEAEAAGIDQDRVVQRILDVVAVALEHHHHHH”, the “soluble on expression in E. coli” value is “soluble”.

Regarding “MSNGAWTDQENDLIVADYFAMLADDVSGRPYNKAEHRRGLLPLLNDRSEGSVEFKHQNISAVLKGLGEDWIPGYKPAFNFQMTLVDAVARWLALNPAWLGRHSGTRAPTGLAEVRPIWIGPPPTLSNQPPPQELEQMLHIARKFDVAARDERNRALGRAGEERVLAHERATLKSAGRDDLARNVRWVSEEDGDGAGYDIASFALDGSPRLIEVKTTNGWERTPFHISRNELAVAEARRSEWSLFRLWNFAREPKAFELHPPLGAHVSLTATTFQASLHLEHHHHHH”, the “soluble on expression in E. coli” value was “not soluble”.

Consider “MSNHQKRLSVPNSWPVERKTATFTVKAGAGPHGESGVPLLIVLRDVLGYADNRKEARYALNEDNVLINGKAISDEERPVGMFDILAFTEREEYYRVFPGEGGRLALTAIDPDAAQSKLGKIVTKTHVSGGDVQLGLHDGETLIVEDDQTYDAGDSIVVGNEDGEVVAHFEYEEGALVTAVDGAHAGEVGEVEEIQVTPGSAQNNVIVSQDEGEGFETVEEYVVVIDENFTGDDELEHHHHHH”, for which the “soluble on expression in E. coli” value is recorded as “soluble”.

Regarding “MSNSSMSVVILAAGKGTRMYSDLPKVLHPLAGKPMVQHVIDAAMKLGAQHVHLVYGHGGELLKKTLADPSLNWVLQAEQLGTGHAMQQAAPHFADDEDILMLYGDVPLISVDTLQRLLAAKPEGGIGLLTVKLDNPSGYGRIVRENGDVVGIVEHKDASDAQREINEINTGILVANGRDLKRWLSLLDNNNAQGEFYITDIIALAHADGKKIATVHPTRLSEVEGVNNRLQLSALERVFQTEQAEKLLLAGVMLLDPSRFDLRGELTHGRDITIDTNVIIEGHVILGDRVRIGTGCVLKNCVIGDDSEISPYTVLEDARLDANCTVGPFARLRPGAELAEGAHVGNFVEIKKARLGKGSKAGHLSYLGDAEIGAGVNIGAGTITCNYDGANKFKTIIGDDVFVGSDTQLVAPVTVANGATIGAGTTVTRDVAENELVISRVKQVHIQGWKRPVKKK”, the “soluble on expression in E. coli” value is “soluble”.

Turning to “MSNTLFDDIFQVSEVDPGRYNKVCRIEAASTTQDQCKLTLDINVELFPVAAQDSLTVTIASSLNLEDTPANDSSATRSWRPPQAGDRSLADDYDYVMYGTAYKFEEVSKDLIAVYYSFGGLLMRLEGNYRNLNNLKQENAYLLIRR”, the “soluble on expression in E. coli” value is recorded as “soluble”.

Regarding “MSNTPIELKGSSFTLSVVHLHEAEPEVIRQALEDKIAQAPAFLKHAPVVINVSGLESPVNWPELHKIVTSTGLRIIGVSGCKDASLKVEIDRMGLPLLTEGKEKAVRPAPVEPATPSEPPQNANPITKTRLIDVPVRSGQRIYAPQCDLIVTSHVSAGAELIADGNIHVYGMMRGRALAGASGDREAQIFCTHLTAELVSIAGVYWLSDKIPAEFYGKAARLRLADNALTVQPLN”, the “soluble on expression in E. coli” value was “not soluble”.

“MSNTQHKLDKTRPPRVQITYDVETGDAETAKELPLVIGVLGEYSSSEKPLRERKFISIDKDNFDEVMASMSPTAHFMVDSVIPGNEGKLDVELRFSCKDDFSPDNVIQQVECLRKLSELRLHLCDLRNRAASNEKLKEKLQELLVTTNGNPENDESKE”: the “soluble on expression in E. coli” value is “not soluble”.

Turning to “MSNTVATMINKRNIMRNYIKIGVAGPVGAGKTALIEKLTREIASKYSVAVITNDIYTQEDAEFLTKNSLLPPERIMGVETGGCPHTAIREDASMNLEAVDEMVTRFPDVEIVFIESGGDNLSATFSPDLADVTIFVIDVAQGEKIPRKGGPGITRSDLLVINKTDLAPFVGADLSVMERDARRMRNGQPFIFTNLMKKENLDGVIGWIEKYALLKNVEEPASLVRLEHHHHHH”, the “soluble on expression in E. coli” value is “soluble”.

With “MSPANRVVQPYSKEDLAIQVSQLSGSRAAIWKALDSIDSWSYRVFDVQAAMSGDDYLSLSTQTHGGSLLITMYALLCMHDFLQKFKIDEQIALNWISAVEASYHGNPYHNSMHAADVLQITDFIITQGGLAKRCDLSDIQVFSALLAASIHDFDHPGINNNFHIKTGSYLATLYNDRSVLENLHVSSVFELMKNPAFNILASFSDEQHHEVRETMIEMVLATDMGSHGKYVASLKGKMQEHSSFTQTAEQNLCLAIALKMADISNCGRPLDIYLRWGAKVSDEFYQQGDRERNLGLECSPFMDRLQPSLAKSQIAFMNYIITPFFEQVAELLPDMRFAVALVEENKAYWANHDDS”, the “soluble on expression in E. coli” value is “not soluble”.
